This is an account of results in patent US20200317791A1 (Janssen / Centocor, published 2020).

Test [1] has as its target T1, CW6W36 (rhHLA-Cw6/ADAMTSL5) (human).
T1 construct: also called CW6W36.002; rHLA-Cw6/ADAMTSL5
The test is described as follows: SPR Biacore 8K, captured mAb; Acceptable fit.
Description: (§1) To further characterize the ability of the antibodies to differentiate between class I MHC molecules.

For a further test, the target named is CW6W56.ECO.PP.001. Description: SPR Biacore 8K, captured mAb; Acceptable fit.
The target of another test is CW6W47.001. Description: SPR Biacore 8K, captured mAb; Acceptable fit.
In another test the target is CW6W51.001. The test is described as follows: SPR Biacore 8K, captured mAb; Acceptable fit.
The next test deals with CW6W53.001. Description: SPR Biacore 8K, captured mAb; Acceptable fit.
Another test addresses CW6W35.001. Description: SPR Biacore 8K, captured mAb; Acceptable fit.
Test [2] concerns the target T2, rhHLA-B7 stably expressed on K562 cells (K562-rhHLA-B7) (human, UniProt P01889 25-362).
T2 construct: also called K562-rehHLA-B7
The test is described as follows: MSD cell binding.

Test [3] deals with T3, rhHLA-Cw6 stably expressed on K562 cells (K562-rhHLA-Cw6) (human, UniProt P10321 25-366).
T3 construct: also called K562-HLA-Cw6
T3 MHC heavy: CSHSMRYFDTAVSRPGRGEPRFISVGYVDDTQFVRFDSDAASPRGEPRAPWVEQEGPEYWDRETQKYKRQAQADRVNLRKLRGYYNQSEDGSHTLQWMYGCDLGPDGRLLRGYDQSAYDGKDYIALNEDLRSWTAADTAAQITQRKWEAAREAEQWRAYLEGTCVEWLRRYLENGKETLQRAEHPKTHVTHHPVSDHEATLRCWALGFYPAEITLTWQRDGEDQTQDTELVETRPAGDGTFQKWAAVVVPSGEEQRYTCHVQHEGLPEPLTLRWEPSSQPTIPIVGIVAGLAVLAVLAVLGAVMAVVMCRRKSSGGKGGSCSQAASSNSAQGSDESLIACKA
Description: MSD cell binding.
Description: (§2) The blocking buffer was aspirated, 20 μl of prepared test antibodies were added to appropriate wells, and the plate was incubated further for 1 hour at RT. The plate was washed three times with 80 μl PBS, and then each well received 20 μl/well of a 1 μg/ml SulfoTag labeled secondary detection antibody solution. After a 1-hour incubation at RT, the plate was washed three times with 80 μl PBS, and 50 μl/well of a 1× MSD Read Buffer T (surfactant free) (MSD #R92TD-1) was added and the plate was read on an MSD Sector 600 Plate Reader.

The target of test [4] is T2, rhHLA-B7 stably expressed on K562 cells …. Description: MSD cell binding. The source holds these as a separate data set.
Description: as §2
In test [5] the target is T1, CW6W36 (rhHLA-Cw6/ADAMTSL5). Description: SPR ProteOn XPR36, captured mAb; valid kinetic fit.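 Note: Anti-HLA-Cw6 mAbs captured at 100–200 RU, antigen flowed in PBST, 180 s association and 900 s dissociation, double-referenced sensorgrams globally fit to a 1:1 Langmuir model.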
Description: (§3) Anti-HLA-Cw6 mAbs were captured at ligand densities ranging from 100 to 200 response units. […] All analyses were conducted in PBST at 100 μL/min flow rate with association and dissociation times of 180 and 900 seconds, respectively. […] Analyte raw data was double referenced by subtraction of the blank surface response at “interspots” (to correct for refractive index changes and any non-specific interactions with the chip surface) and of the buffer blank response (to correct for any baseline drift resulting from mAb dissociation over time). Referenced data were globally fit to a 1:1 simple Langmuir binding model. Kinetic parameters were calculated for each mAb/antigen combination or interaction using Bio-Rad ProteOn Manager software (version 3.1.0.6) with parameter (kon, koff, Rmax) scope and type set to “Grouped” and “Fitted,” respectively.
Test [6] has as its target T4, CW6W32 (rhHLA-Cw6/TRAT) (human).
T4 construct: also called CW6W32.009; rHLA-Cw6/TRAT
Description: SPR ProteOn XPR36, captured mAb; valid kinetic fit.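 Note: Anti-HLA-Cw6 mAbs captured at 100–200 RU, antigen flowed in PBST, 180 s association and 900 s dissociation, double-referenced sensorgrams globally fit to a 1:1 Langmuir model.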
Description: as §3

The target in test [7] is T5, CW6W3.ECO.PP.002/.003 (rhHLA-Cw6/ARF) (human).
T5 construct: also called rhHLA-Cw6/ARFN; rHLA-Cw6/ARFN
The test is described as follows: SPR ProteOn XPR36, captured mAb; valid kinetic fit.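 Note: Anti-HLA-Cw6 mAbs captured at 100–200 RU, antigen flowed in PBST, 180 s association and 900 s dissociation, double-referenced sensorgrams globally fit to a 1:1 Langmuir model.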

The next test addresses CW6W55.ECO.PP.002. Description: SPR Biacore 8K, captured mAb; Kinetic fit not valid.
Test [8] addresses T4, CW6W32 (rhHLA-Cw6/TRAT). Described as above.
Another test concerns the target CW6W54.001. The description is as above.
The next test deals with T6, A24_A*24:02 (human, UniProt A*24:02).
T6 construct: on LABScreen bead; also called HLA-A*24:02 (LABScreen class I bead)
T6 heavy chain: not shown
Description: LABScreen beads.

T2 sequence (P01889 25-362 limits assumed): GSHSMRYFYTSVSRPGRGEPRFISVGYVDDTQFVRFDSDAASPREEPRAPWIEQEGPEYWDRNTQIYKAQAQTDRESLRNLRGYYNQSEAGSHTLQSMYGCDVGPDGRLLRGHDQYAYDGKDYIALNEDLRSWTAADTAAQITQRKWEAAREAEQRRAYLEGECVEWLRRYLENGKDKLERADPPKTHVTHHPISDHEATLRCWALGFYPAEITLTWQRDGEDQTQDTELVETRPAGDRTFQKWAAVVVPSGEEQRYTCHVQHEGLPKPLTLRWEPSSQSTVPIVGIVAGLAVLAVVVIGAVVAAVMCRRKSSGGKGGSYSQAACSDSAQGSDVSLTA
Description for CW6W35.001: as §1
Description for CW6W47.001: as §1
Description for CW6W51.001: as §1
Description for CW6W53.001: as §1
Description for CW6W56.ECO.PP.001: as §1

B1: CW6B233 (antibody, V domains shown)
VH: QVQLQESGPGLVKPSETLSLTCTVSGNSIRSYYWSWIRQPAGKGLEWIGRIYISGNTNYNPSLKSRVTMSIDTSKNQFSLKLSSVTAADTAVYYCARLSGIDAFDIWGQGTMVTVSS
VL: DIQMTQSPSSLSASVGDRVTITCQASQDITNYLNWYQQKPGKAPKLLIYDASNLETGVPSRFSGSGSGTDFTFTISSLQPEDFATYYCQQYDNLPITFGQGTRLEIK
notes: also called CW6B233.001; CW6M233 (DNA ID)
For B1, the Kd in test [1] is 3.82 nM; with CW6W56.ECO.PP.001, 1.26 nM; with CW6W47.001 it was 9.63 nM; in the test with CW6W51.001, 1.18 nM; in the test with CW6W53.001, 2.09 nM; in the test with CW6W35.001, 3.59 nM. The Kd in [5] was determined as 1 nM; with CW6W32 (rhHLA-Cw6/TRAT) [6], 1.55 nM; in [7] it was 0.29 nM; in the test with CW6W55.ECO.PP.002 it was 7.3 nM; with CW6W32 (rhHLA-Cw6/TRAT) [8], 3.73 nM; in the test with CW6W54.001 it was 0.798 nM. For the same molecule, the koff in test [1] was 0.00433 s⁻¹; with CW6W56.ECO.PP.001, 0.00107 s⁻¹; with CW6W47.001, 0.00801 s⁻¹; with CW6W51.001, 0.000514 s⁻¹; in the test with CW6W53.001, 0.00073 s⁻¹; in the test with CW6W35.001, 0.000758 s⁻¹. Moreover, the koff in test [5] turned out to be 0.00355 s⁻¹; with CW6W32 (rhHLA-Cw6/TRAT) [6], 0.00234 s⁻¹; in [7] it was 0.000293 s⁻¹; with CW6W55.ECO.PP.002 it was 1.22 s⁻¹; with CW6W32 (rhHLA-Cw6/TRAT) [8] it was 0.00203 s⁻¹; with CW6W54.001 it was 0.000484 s⁻¹. For the same molecule, the on-rate (kon) was found to be 1.14e+06 M⁻¹ s⁻¹ in [1]; 849000 M⁻¹ s⁻¹ in the test with CW6W56.ECO.PP.001; 832000 M⁻¹ s⁻¹ with CW6W47.001; 437000 M⁻¹ s⁻¹ in the test with CW6W51.001; 350000 M⁻¹ s⁻¹ with CW6W53.001; 211000 M⁻¹ s⁻¹ with CW6W35.001. For the same molecule, the kon in test [5] was found to be 3.56e+06 M⁻¹ s⁻¹; in the test with CW6W32 (rhHLA-Cw6/TRAT) [6] it was 1.51e+06 M⁻¹ s⁻¹; in [7] it was 1.02e+06 M⁻¹ s⁻¹; in the test with CW6W55.ECO.PP.002, 1.67e+08 M⁻¹ s⁻¹; in the test with CW6W32 (rhHLA-Cw6/TRAT) [8] it was 544000 M⁻¹ s⁻¹; with CW6W54.001, 607000 M⁻¹ s⁻¹. In addition, in test [2], the binding result is recorded as “no binding”. Moreover, in [3], the “HLA-Cw6 Selective (K562-rhHLA-Cw6 specific/K562-rhHLA-B7 specific)” value was found to be 44 ratio. Further, in [3], the “HLA-Cw6 Specific (K562-rhHLA-Cw6/K562 Parent binding signal)” value came out at 36 ratio. In addition, the “HLA-B7 Specific (K562-rhHLA-B7/K562 Parent binding signal)” value in test [4] turned out to be 0.8 ratio.

B2: CW6B228 (antibody, V domains shown)
VH: QVQLQESGPGLVKPSETLSLTCTVSGNSIRSYYWSWIRQPAGKGLEWIGRIYISGNTNYNPSLKSRVTMSIDTSKNQFSLKLSSVTAADTAVYYCARLSGIDAFDIWGQGTMVTVSS
VL: DIQMTQSPSSLSASVGDRVTITCQASQDINNYLNWYQQKPGKAPKLLIYDASSLETGVPSRFSGSGSGTDFTFTISSLQPEDFATYYCQQYDDLPITFGQGTRLEIK
notes: also called CW6B228.001; CW6M228 (DNA ID)
For B2, the binding result in [2] was “no binding”. Besides, in [3], the “HLA-Cw6 Selective (K562-rhHLA-Cw6 specific/K562-rhHLA-B7 specific)” value is 78 ratio and the “HLA-Cw6 Specific (K562-rhHLA-Cw6/K562 Parent binding signal)” value stood at 75 ratio. The “HLA-B7 Specific (K562-rhHLA-B7/K562 Parent binding signal)” value in test [4] stood at 1 ratio. In test [5], this molecule showed a Kd of 0.05 nM, a koff of 0.000732 s⁻¹ and a kon of 1.52e+07 M⁻¹ s⁻¹. In the test with CW6W32 (rhHLA-Cw6/TRAT) [6], this molecule displayed a Kd of 0.09 nM, an off-rate (koff) of 0.000534 s⁻¹ and an on-rate constant (kon) of 5.98e+06 M⁻¹ s⁻¹. In test [7], this molecule had a dissociation constant (Kd) of 0.04 nM, a koff of 0.000178 s⁻¹ and a kon of 4.89e+06 M⁻¹ s⁻¹.

B3: CW6B229 (antibody, V domains shown)
VH: QVQLQESGPGLVKPSETLSLTCTVSGNSIRSYYWSWIRQPAGKGLEWIGRIYISGNTNYNPSLKSRVTMSIDTSKNQFSLKLSSVTAADTAVFYCARLSGIDAFDIWGQGTMVTVSS
VL: DIQMTQSPSSLSASVGDRVTITCQASQDISNYLNWYQQKPGKAPKLLIYDASNLETGVPSRFSGSGSGTDFTFTISSLQPEDFATYYCQQYDNLPITFGQGTRLEIK
notes: also called CW6B229.001; CW6M229 (DNA ID)
Take B3: the Kd stood at 1.23 nM with CW6W56.ECO.PP.001, 7.1 nM in the test with CW6W55.ECO.PP.002 and 0.673 nM in the test with CW6W54.001. Further, the koff in the test with CW6W56.ECO.PP.001 was 0.00127 s⁻¹; with CW6W54.001 it was 0.000465 s⁻¹. Further, the association rate constant (kon) came out at 1.03e+06 M⁻¹ s⁻¹ in the test with CW6W56.ECO.PP.001 and 691000 M⁻¹ s⁻¹ in the test with CW6W54.001. Further, in the test with A24_A*24:02, the binding result is reported as “no binding (tested: 10 µg/ml)”.
